System: La protein
Assay: qRT-PCR of La protein mRNA from transfected HEK293T tTA-d2EGFP cells
Format: cell-based
Procedure: (A) qRT-PCR of La protein mRNA from HEK293T tTA-d2EGFP cells transfected in the presence (▪) or absence (□) of 1.5 mM theophylline. […] Error bars represent quadruplicate qRT-PCR measurements. (B) Curve fit to extrapolate empirical parameters C1-3. Dashed line marks knockdown achieved by base shRNA. (C) Model predictions for dynamic range using empirical parameter values for the GFP experiments along with fshRNA=0.6 and e=0.72 (gray curve) and extrapolated values from the La experiments (black curve). (D) Relationship between dynamic range (η) and the free energy difference. The dashed line represents the apparent increase in La mRNA levels upon theophylline addition observed for the base shRNA (shL).
To examine the generality of shRNA switch design and functionality, Applicants designed a set of shRNA switches targeting the endogenous La protein. Following selection of an shRNA sequence that yields moderate knockdown of La as ascertained by qRT-PCR, various switching strand sequences covering a range of ΔG values were combined with the smaller theophylline aptamer to yield six shRNA switches (L1-6). […] As observed for the GFP-targeting shRNA switches, use of the stems method provided a suitable correlation between basal levels and ΔGmethod. Supplying the model with fit values for C1-3 yielded a predicted dynamic range trend that closely matched the experimental data. […]

B1: shL: base shRNA targeting endogenous La protein; sequence in Table I (pCS1457) (nucleic acid)
chain: GGATCCGGCTTCCCAACGATGATGCAACTCCTCGAGTCTAGAGGAGTTGCATCAGTTGGGAAGCCTTTTTTGGAAGCTT
modifications: the letters are possibly those of the target site
1.5 mM theophylline
  response of La mRNA levels to theophylline: not observed
Relative knockdown of La by base shRNA
  fshRNA (La experiments): 0.6

Source: US8367815B2, “Modular polynucleotides for ligand-controlled regulatory systems” (California Institute of Technology, priority 2007, dated 2013)
